From patent publication US20150315277A1 (published 2015)

Target: recombinant human DLL4 (hDLL4) (human, UniProt Q9NR61 27-524)
Experiment: Biacore

recombinant human DLL4 (hDLL4), sequence (Q9NR61 27-524): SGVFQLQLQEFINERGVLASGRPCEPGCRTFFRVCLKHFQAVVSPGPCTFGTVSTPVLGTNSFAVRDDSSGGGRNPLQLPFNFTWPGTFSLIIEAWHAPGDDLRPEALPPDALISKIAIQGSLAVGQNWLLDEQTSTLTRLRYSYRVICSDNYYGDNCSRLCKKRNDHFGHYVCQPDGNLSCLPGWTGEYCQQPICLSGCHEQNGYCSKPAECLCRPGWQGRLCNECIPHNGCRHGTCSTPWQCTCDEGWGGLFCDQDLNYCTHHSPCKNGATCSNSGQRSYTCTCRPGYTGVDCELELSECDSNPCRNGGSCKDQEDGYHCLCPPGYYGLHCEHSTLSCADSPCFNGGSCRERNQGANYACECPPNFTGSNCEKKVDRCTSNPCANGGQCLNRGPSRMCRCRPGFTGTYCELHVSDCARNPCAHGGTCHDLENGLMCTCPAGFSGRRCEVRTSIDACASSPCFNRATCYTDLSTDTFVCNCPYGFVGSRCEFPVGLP

B1: Notch-1 Fc (rhNotch1-Fc) (Fc fusion)
chain: ARGPRCSQPGETCLNGGKCEAANGTEACVCGGAFVGPRCQDPNPCLSTPCKNAGTCHVVDRRGVADYACSCALGFSGPLCLTPLDNACLTNPCRNGGTCDLLTLTEYKCRCPPGWSGKSCQQADPCASNPCANGGQCLPFEASYICHCPPSFHGPTCRQDVNECGQKPGLCRHGGTCHNEVGSYRCVCRATHTGPNCERPYVPCSPSPCQNGGTCRPTGDVTHECACLPGFTGQNCEENIDDCPGNNCKNGGACVDGVNTYNCRCPPEWTGQYCTEDVDECQLMPNACQNGGTCHNTHGGYNCVCVNGWTGEDCSENIDDCASAACFHGATCHDRVASFYCECPHGRTGLLCHLNDACISNPCNEGSNCDTNPVNGKAICTCPSGYTGPACSQDVDECSLGANPCEHAGKCINTLGSFECQCLQGYTGPRCEIDVNECVSNPCQNDATCLDQIGEFQCICMPGYEGVHCEVNTDECASSPCLHNGRCLDKINEFQCECPTGFTGHLCQ
Kd: 19.9 nM
